Substitutions are numbered along the chain they refer to. Names and notes keep the numbering of the source.
T1: recombinant FLAG5, His6-tagged GINS (Psf1, Psf2, Psf3 and Sld5) (Xenopus laevis, UniProt Q7ZT47 1-196; Q7ZT46 1-185; Q7ZT01 1-210; Q7ZT48 1-221)
T1 construct: Psf1, subunit of GINS, Xenopus laevis; Psf2, subunit of GINS, Xenopus laevis; Psf3, subunit of GINS, Xenopus laevis; Sld5, subunit of GINS, Xenopus laevis; also called recombinant GINS; FLAG-tagged GINS; copies: + + +
T1 sequence (looked up) 1: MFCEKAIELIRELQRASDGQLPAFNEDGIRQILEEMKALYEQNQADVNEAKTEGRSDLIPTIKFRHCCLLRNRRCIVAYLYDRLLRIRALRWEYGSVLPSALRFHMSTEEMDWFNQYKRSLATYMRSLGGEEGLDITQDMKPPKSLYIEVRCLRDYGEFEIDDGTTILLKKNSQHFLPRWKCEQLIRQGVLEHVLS
T1 sequence (looked up) 2: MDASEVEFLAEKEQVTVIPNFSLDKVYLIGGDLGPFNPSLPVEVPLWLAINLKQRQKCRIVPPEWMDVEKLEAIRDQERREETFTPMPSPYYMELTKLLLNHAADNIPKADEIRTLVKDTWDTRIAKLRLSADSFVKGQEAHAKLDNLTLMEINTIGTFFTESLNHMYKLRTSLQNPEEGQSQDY
T1 sequence (looked up) 3: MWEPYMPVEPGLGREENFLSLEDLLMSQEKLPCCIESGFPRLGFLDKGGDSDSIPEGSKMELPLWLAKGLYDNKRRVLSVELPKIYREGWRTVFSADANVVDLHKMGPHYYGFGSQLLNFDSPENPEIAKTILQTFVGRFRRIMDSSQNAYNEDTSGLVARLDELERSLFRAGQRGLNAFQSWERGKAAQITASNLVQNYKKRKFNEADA
T1 sequence (looked up) 4: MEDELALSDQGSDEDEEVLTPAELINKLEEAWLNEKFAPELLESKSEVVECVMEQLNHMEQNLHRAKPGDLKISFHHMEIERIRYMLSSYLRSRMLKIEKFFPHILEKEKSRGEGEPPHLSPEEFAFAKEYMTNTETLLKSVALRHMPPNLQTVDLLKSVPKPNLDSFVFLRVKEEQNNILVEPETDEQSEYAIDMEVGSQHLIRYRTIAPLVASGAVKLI

B1: DONSONΔ24 (truncation of residues 1–24) (domain or fragment, Xenopus laevis, UniProt Q5U4U4 25-579, looked up)
chain: RSRSEASKTGLSPFSPGDVIKRVPGLRPFSPGPNKGAGVKRRNPFASLENTVCSPVKRRAETVAEYGAASLEPRALSAVRPSCLGQDSPEPPQFNSVEDVIWGDPLAADADPLVKTESPEKPAPACEIPKGSVTFPADWSLKTRLLFTSSHSFSWADHLKAQEEAQGLVMQCRATAVNLPHSIQEPKLSTDLRCAFQQSLVHWIHPSLPWVQLFPRIGVDRKMAGKNTPWSQDESLQQVLMSEWALSFTSLYNLLKAKLCPYFYVCTYQFTVLFRAAGLAGSDVITAVMSPTTRGLREAMKNEGITFSQPLVEDDTGKKQKKPEAASQGDINPEKENGTAEADEASDESDEDESFSWLEEMGVEDKIKKPDSISIKLRKEKNEVKLDHKPESVVLVKGTNTFTLLNFLINCKSIVAAAGLQAGLPPTLLSPVAFRGATMHALKARSVNVKTRVNSGYKDQFSLEITGPIMPHSLHSLTMLLQSAQRGSFSAGLYTHEPTAVFNTPIHSQAVKEISADLQNCGLHPCTVEQLTQVNELGKLSLRHLEMTDYRYTWK
notes: DONSON, Xenopus laevis, without residues 1-24; See the note of m17 on a possible Myc tag; also called DONSON D24 (D1-24); pET28a-DONSON Δ24 (1-24 removed); source: E. coli BL21 (DE3), purified (Ni-NTA)
B2: DONSON ΔD1 (Δ1-155) (domain or fragment, Xenopus laevis, UniProt Q5U4U4 156-579, looked up)
chain: SVTFPADWSLKTRLLFTSSHSFSWADHLKAQEEAQGLVMQCRATAVNLPHSIQEPKLSTDLRCAFQQSLVHWIHPSLPWVQLFPRIGVDRKMAGKNTPWSQDESLQQVLMSEWALSFTSLYNLLKAKLCPYFYVCTYQFTVLFRAAGLAGSDVITAVMSPTTRGLREAMKNEGITFSQPLVEDDTGKKQKKPEAASQGDINPEKENGTAEADEASDESDEDESFSWLEEMGVEDKIKKPDSISIKLRKEKNEVKLDHKPESVVLVKGTNTFTLLNFLINCKSIVAAAGLQAGLPPTLLSPVAFRGATMHALKARSVNVKTRVNSGYKDQFSLEITGPIMPHSLHSLTMLLQSAQRGSFSAGLYTHEPTAVFNTPIHSQAVKEISADLQNCGLHPCTVEQLTQVNELGKLSLRHLEMTDYRYTWK
notes: DONSON, Xenopus laevis, without residues 1-155 (the unstructured D1 loop); also called DONSON DD1 (D1-155); pET28a-DONSON ΔD1; source: recombinant (pET28a vector)
B3: recombinant Xenopus laevis DONSON WT (natural protein)
chain: MAELLPGYSPSFKKPSEILRLSRRRSRSEASKTGLSPFSPGDVIKRVPGLRPFSPGPNKGAGVKRRNPFASLENTVCSPVKRRAETVAEYGAASLEPRALSAVRPSCLGQDSPEPPQFNSVEDVIWGDPLAADADPLVKTESPEKPAPACEIPKGSVTFPADWSLKTRLLFTSSHSFSWADHLKAQEEAQGLVMQCRATAVNLPHSIQEPKLSTDLRCAFQQSLVHWIHPSLPWVQLFPRIGVDRKMAGKNTPWSQDESLQQVLMSEWALSFTSLYNLLKAKLCPYFYVCTYQFTVLFRAAGLAGSDVITAVMSPTTRGLREAMKNEGITFSQPLVEDDTGKKQKKPEAASQGDINPEKENGTAEADEASDESDEDESFSWLEEMGVEDKIKKPDSISIKLRKEKNEVKLDHKPESVVLVKGTNTFTLLNFLINCKSIVAAAGLQAGLPPTLLSPVAFRGATMHALKARSVNVKTRVNSGYKDQFSLEITGPIMPHSLHSLTMLLQSAQRGSFSAGLYTHEPTAVFNTPIHSQAVKEISADLQNCGLHPCTVEQLTQVNELGKLSLRHLEMTDYRYTWK
notes: DONSON (Downstream neighbor of Son), Xenopus laevis; also called WT DONSON; WT recombinant DONSON; source: E. coli BL21 (DE3), purified (Ni-NTA)
B4: DONSON DEW (D374A; E377A; W381A) (natural protein, Xenopus laevis)
chain: B3 chain with D374A, E377A, W381A
notes: DONSON, Xenopus laevis; also called pET28a-DONSON-DEW; source: E. coli BL21 (DE3), purified (Ni-NTA)
B5: DONSON S437A (natural protein, Xenopus laevis)
chain: B3 chain with S437A
notes: DONSON, Xenopus laevis; also called DONSON Ser437Ala; pET28a-DONSON-S437A; source: E. coli BL21 (DE3), purified (Ni-NTA)
B6: DONSON DEWS (D374A; E377A; W381A; S437A) (natural protein, Xenopus laevis)
chain: B3 chain with D374A, E377A, W381A, S437A
notes: DONSON, Xenopus laevis; also called pET28a-DONSON-DEWS; source: E. coli BL21 (DE3), purified (Ni-NTA)
B7: DONSON 3A (V473A; R476A; Y481A) (natural protein, Xenopus laevis)
chain: B3 chain with V473A, R476A, Y481A
notes: DONSON, Xenopus laevis; also called pET28a-DONSON-3A; source: E. coli BL21 (DE3), purified (Ni-NTA)

Target: the molecule itself
Assay: mass photometry; recombinant DONSON proteins diluted ten-fold into Dulbecco PBS to a final concentration of 3 to 5 nM; TwoMP (Refeyn); monomer to dimer
Settings: not given

Molecule	stoichiometry N
B1	2
B2	2
B3	2
B4	2
B5	2
B6	2
B7	2

Target: T1, recombinant FLAG5, His6-tagged GINS …
Assay: co-IP; recombinant FLAG-tagged GINS immunoprecipitated after incubation with recombinant DONSON variants; blot with an anti-DONSON antibody (Figure S5B)
Settings: both partners purified

binding result	Molecule
binds	B3
binds	B7

Target: DONSON WM (W234L; M463T) (Xenopus laevis) (UniProt Q5U4U4)
Assay: mass photometry; protein concentration varied (Figure S7); DONSON WM at 20 nM; monomer to dimer
Settings: not given

stoichiometry N	Molecule
2	DONSON WM (W234L; M463T) (from UniProt Q5U4U4 1-579) (natural protein)

— publication PMC7616792, “The structural mechanism of dimeric DONSON in replicative helicase activation” (Molecular cell, 2023)
